Test results from PMC6179375 (Science Advances, 2018).

T1: Ac-(NPNA)2-NH2 peptide (Plasmodium falciparum (synthetic repeat …))
T1 construct: two NPNA repeats of the central repeat region of P. falciparum circumsporozoite protein (PfCSP); also called (NPNA)2 peptide; source: synthetic peptide, bought: InnoPep Inc. (>98% purity)
T1 chain: Ac-NPNANPNA-NH2


Molecular target: T1, Ac-(NPNA)2-NH2 peptide
Assay: ITC; MicroCal Auto-iTC200; peptide 134 uM in the syringe, Fab in the cell (9.2 uM Fab311, 9.6 uM Fab311R); Dulbecco's PBS; 25 °C; triplicate experiments, 16 injections
Conditions: both partners purified

Binder | Kd | stoichiometry N
Fab311 (Fab of monoclonal antibody mAb311) (Fab, V domains shown, heavy chain of Fab311; cryo-EM models 6MHG and 6MB3 hold the variable domains only; germline IGHV3-33*01; light chain of Fab311; germline IGLV1-40*01; human antibody isolated from an RTS,S/AS01B vaccinee; source: FreeStyle 293-F cells, purified as previously described (15)) VH: QVQLVESGGGVVPPGRSLRLSCATSGFTFSNYGMHWVRQAPGKGLEWVAIIWYDGSRNFYAASVEGRFTISRDNSKNTLYLQMNSLRVEDTAVYYCARAAYYDTSGYGDYWGQGTLVTVSS VL: QSVLTQPPSVSGAPGQTVTISCTGGSSNIGAGYDVHWYQQLPGTAPKLLIYGNINRPSGVPDRFSGSKSGTSASLAITGLQAEDEADYYCQSYDRRLSGSWVFGGGTKLTVL | 160 ± 7 nM | 1.19 ± 0.04
Fab311R (Fab311 inter-Fab contact residue reverted) (Fab, V domains shown, the PDB entries hold the parent Fab311; also called germline-reverted Fab311; source: FreeStyle 293-F cells) VH: QVQLVESGGGVVPPGRSLRLSCATSGFTFSSYGMHWVRQAPGKGLEWVAIIWYDGSNKFYAASVKGRFTISRDNSKNTLYLQMNSLRVEDTAVYYCARAAYYDTSGYGDYWGQGTLVTVSS VL: QSVLTQPPSVSGAPGQTVTISCTGGSSNIGAGYDVHWYQQLPGTAPKLLIYGNINRPSGVPDRFSGSKSGTSASLAITGLQAEDEADYYCQSYDSSLSGSWVFGGGTKLTVL | 135 ± 56 nM | 1.21 ± 0.03
